The target in this assay is T1, full-length PARP1, purified recombinant (UniProt P09874 1-1014).
T1 construct: PARP1, full length; also called purified PARP1; source: purified recombinant
The assay is described as follows: MST; Monolith NT.115, 17% LED power, medium MST power, MST-on time of 10 s; full-length proteins. The note with it: both partners purified.

T1 sequence (P09874 whole entry): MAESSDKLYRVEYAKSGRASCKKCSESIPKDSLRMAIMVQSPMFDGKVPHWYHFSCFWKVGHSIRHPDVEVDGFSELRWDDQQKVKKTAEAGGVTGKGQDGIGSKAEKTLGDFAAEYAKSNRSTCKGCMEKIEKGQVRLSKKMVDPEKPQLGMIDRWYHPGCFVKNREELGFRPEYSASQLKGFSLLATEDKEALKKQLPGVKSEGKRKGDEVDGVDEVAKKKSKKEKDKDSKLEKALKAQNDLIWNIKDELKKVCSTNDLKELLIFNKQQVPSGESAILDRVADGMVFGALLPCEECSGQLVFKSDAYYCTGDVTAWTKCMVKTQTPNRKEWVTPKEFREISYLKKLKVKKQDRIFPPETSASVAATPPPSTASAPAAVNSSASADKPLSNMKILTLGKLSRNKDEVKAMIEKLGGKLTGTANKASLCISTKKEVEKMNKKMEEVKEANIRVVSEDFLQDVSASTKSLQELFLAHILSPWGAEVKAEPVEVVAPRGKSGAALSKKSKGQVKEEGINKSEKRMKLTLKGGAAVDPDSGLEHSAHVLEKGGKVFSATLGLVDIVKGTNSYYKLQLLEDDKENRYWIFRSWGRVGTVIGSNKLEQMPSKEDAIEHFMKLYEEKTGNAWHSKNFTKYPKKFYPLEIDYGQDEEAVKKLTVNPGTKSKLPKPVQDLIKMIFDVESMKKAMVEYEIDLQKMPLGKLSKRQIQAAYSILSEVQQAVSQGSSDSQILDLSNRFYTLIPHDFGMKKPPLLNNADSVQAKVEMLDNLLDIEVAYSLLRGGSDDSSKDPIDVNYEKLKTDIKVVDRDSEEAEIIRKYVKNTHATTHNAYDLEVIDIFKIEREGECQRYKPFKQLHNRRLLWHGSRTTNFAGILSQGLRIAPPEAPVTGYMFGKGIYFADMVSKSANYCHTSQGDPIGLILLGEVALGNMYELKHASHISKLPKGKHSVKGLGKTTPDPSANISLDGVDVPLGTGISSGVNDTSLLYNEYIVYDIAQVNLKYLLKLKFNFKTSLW

B1: full-length MGMT, purified recombinant (natural protein, UniProt P16455 1-207, looked up)
chain: MDKDCEMKRTTLDSPLGKLELSGCEQGLHEIKLLGKGTSAADAVEVPAPAAVLGGPEPLMQCTAWLNAYFHQPEAIEEFPVPALHHPVFQQESFTRQVLWKLLKVVKFGEVISYQQLAALAGNPKAARAVGGAMRGNPVPILIPCHRVVCSSGAVGNYSGGLAVKEWLLAHEGHRLGKPGLGGSSGLAGAWLKGAGATSGSPPAGRN
notes: MGMT, full length; also called purified MGMT; source: purified recombinant
In general, Kd refers to the free concentration of one partner at which half of the binding sites on the other are occupied at equilibrium, for simple one-to-one binding. Turning to B1, the Kd worked out at 165 nM.

(Values after article PMC9563463, “PARP1-MGMT complex underpins pathway crosstalk in O^6-methylguanine repair” (Journal of Hematology & Oncology, 2022).)
